{"source": "paper PMC5823917", "about": "“Sumoylation regulates FMRP-mediated dendritic spine elimination and maturation” (Nature Communications, 2018)", "proteins": {"B1": {"name": "FMRP (1-160 aa), N-terminal domain, GST-tagged and His-tagged copies (domain or fragment)", "chain": "not shown", "notes": "FMRP, N-terminal domain, residues 1-160; Two differently tagged copies of one fragment: GST-FMRP (1-160) held on glutathione beads and His-FMRP (1-160) in solution; each copy carries one tag, not both; also called GST-FMRP (1-160); His-FMRP (1-160 aa); source: E. coli BL21(DE3), purified (glutathione gel for GST-FMRP, Nickel resin for His-FMRP)"}}, "molecular_target": "the molecule itself", "assay": "pull-down; GST-FMRP (1-160) 1 ug with 2 ug His-FMRP (1-160), 2 h at 4 °C in dimerization buffer (50 mM Tris-HCl pH 8, 150 mM NaCl, 2.5 mM MgCl2, 0.5% NP40, 0.5 mM DTT); glutathione beads, five washes; free GST as control", "data": [{"protein": "B1", "values": [{"measurement": "binding result", "value": "binds"}]}]}
